From US20030158389A1 (Genentech, published 2003)

T1: FcγRIIa α subunit ECD-6His-GST fusion protein (UniProt P12318 34-217)
T1 construct: not shown: glutathione S transferase (GST)
T1 sequence: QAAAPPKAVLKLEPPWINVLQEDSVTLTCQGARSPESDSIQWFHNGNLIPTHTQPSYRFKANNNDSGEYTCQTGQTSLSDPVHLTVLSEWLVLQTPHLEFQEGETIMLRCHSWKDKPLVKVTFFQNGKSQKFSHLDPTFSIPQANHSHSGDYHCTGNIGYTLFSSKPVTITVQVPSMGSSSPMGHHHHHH

T2: FcγRIIb α subunit ECD-6His-GST fusion protein (UniProt P31994 43-217)
T2 construct: not shown: glutathione S transferase (GST)
T2 sequence: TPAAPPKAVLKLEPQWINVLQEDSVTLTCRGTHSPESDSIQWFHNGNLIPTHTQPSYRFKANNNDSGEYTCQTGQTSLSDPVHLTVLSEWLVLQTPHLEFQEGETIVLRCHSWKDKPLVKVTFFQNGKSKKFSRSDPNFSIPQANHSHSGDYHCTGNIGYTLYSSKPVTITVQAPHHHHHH

B1: E27 anti-IgE antibody, wild type (humanized IgG1) (antibody)
heavy: not shown
light: DIQLTQSPSSLSASVGDRVTITCRASKPVDGEGDSYMNWYQQKPGKAPKLLIYAASYLESGVPSRFSGSGSGTDFTLTISSLQPEDFATYYCQQSHEDPYTFGQGTKVEIKRTVAAPSVFIFPPSDEQLKSGTASVVCLLNNFYPREAKVQWKVDNALQSGNSQESVTEQDSKDSTYSLSSTLTLSKADYEKHKVYACEVTHQGLSSPVTKSFNRGEC
notes: In the FcγRII and FcγRIII ELISAs it stood as an immune complex E27:chimeric IgE:VEGF (1:1:2); also called wt; recombinant anti-IgE E27
B2: E27 anti-IgE antibody mutant K320A (antibody)
heavy: not shown
light: B1 light
notes: also called K320A (E27 background)
B3: E27 anti-IgE antibody mutant P331A (antibody)
heavy: not shown
light: B1 light
notes: also called P331A (E27 background)
B4: E27 anti-IgE antibody mutant P329A (antibody)
heavy: not shown
light: B1 light
notes: also called P329A (E27 background)
B5: E27 anti-IgE antibody mutant K322A (antibody)
heavy: not shown
light: B1 light
notes: also called K322A (E27 background)
B6: E27 anti-IgE antibody mutant E318A (antibody)
heavy: not shown
light: B1 light
notes: also called E318A (E27 background)

target: T3, FcγRIIIa α subunit ECD-6His-GST fusion protein (UniProt P08637 17-208); assay: ELISA, E27:chimeric IgE:VEGF immune complex on coated receptor ECD-6His-GST
T3 construct: not shown: glutathione S transferase (GST)
T3 sequence (P08637 other isoform, or with tags, fused parts or gaps, form in doubt): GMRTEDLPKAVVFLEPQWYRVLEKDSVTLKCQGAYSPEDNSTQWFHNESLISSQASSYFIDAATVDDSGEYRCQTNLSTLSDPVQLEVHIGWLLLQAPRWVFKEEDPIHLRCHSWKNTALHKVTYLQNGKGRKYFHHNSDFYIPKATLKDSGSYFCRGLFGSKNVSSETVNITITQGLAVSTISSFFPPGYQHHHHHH

binding as percentage of the wild type [%] | Binder
100 | B1
72 | B2
73 | B3
85 | B4
90 | B5
104 | B6

target: T1, FcγRIIa α subunit ECD-6His-GST fusion …; assay: as above

binding as percentage of the wild type [%] | Binder
100 | B1
94 | B2
86 | B3
111 | B4
109 | B5
113 | B6

target: T2, FcγRIIb α subunit ECD-6His-GST fusion …; assay: as above

binding as percentage of the wild type [%] | Binder
100 | B1
83 | B2
58 | B3
96 | B4
101 | B5
106 | B6

target: T4, FcγRI α subunit-GST fusion (UniProt P12314 16-292); assay: ELISA, monomeric IgG on coated FcγRI α subunit-GST
T4 construct: not shown: glutathione S transferase (GST)
T4 sequence (P12314 other isoform, or with tags, fused parts or gaps, form in doubt): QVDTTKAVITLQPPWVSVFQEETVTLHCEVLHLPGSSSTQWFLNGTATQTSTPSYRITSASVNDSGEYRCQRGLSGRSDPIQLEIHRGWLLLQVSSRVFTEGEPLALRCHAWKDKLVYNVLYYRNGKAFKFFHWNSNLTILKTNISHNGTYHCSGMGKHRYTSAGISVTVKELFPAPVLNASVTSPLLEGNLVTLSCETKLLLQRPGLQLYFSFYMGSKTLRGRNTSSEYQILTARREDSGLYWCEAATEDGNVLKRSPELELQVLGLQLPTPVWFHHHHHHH

binding as percentage of the wild type [%] | Binder
100 | B1
102 | B2
74 | B3
104 | B4
90 | B5
93 | B6
